Laboratory results reported in patent US20180291083A1 (IMMATICS BIOTECHNOLOGIES, published 2018).

Target: T1, HLA-B*07:02 (human)
T1 construct: Peptide-receptive MHC class I monomer made by UV cleavage of a UV-sensitive ligand
Assay: UV ligand exchange ELISA; exchange yield grade
Source text: (§1) Candidate peptides for T cell based therapies according to the present invention were further tested for their MHC binding capacity (affinity). The individual peptide-MHC complexes were produced by UV-ligand exchange, where a UV-sensitive peptide is cleaved upon UV-irradiation, and exchanged with the peptide of interest as analyzed. Only peptide candidates that can effectively bind and stabilize the peptide-receptive MHC molecules prevent dissociation of the MHC complexes. To determine the yield of the exchange reaction, an ELISA was performed based on the detection of the light chain (β2m) of stabilized MHC complexes. The assay was performed as generally described in Rodenko et al. (Rodenko et al., 2006).
(§2) 96 well MAXISorp plates (NUNC) were coated over night with 2 ug/ml streptavidin in PBS at room temperature, washed 4× and blocked for 1 h at 37° C. in 2% BSA containing blocking buffer. Refolded HLA-A*02:01/MLA-001 monomers served as standards, covering the range of 15-500 ng/ml. Peptide-MHC monomers of the UV-exchange reaction were diluted 100-fold in blocking buffer. Samples were incubated for 1 h at 37° C., washed four times, incubated with 2 ug/ml HRP conjugated anti-β2m for 1 h at 37° C., washed again and detected with TMB solution that is stopped with […]. Absorption was measured at 450 nm. Candidate peptides that show a high exchange yield (preferably higher than 50%, most preferred higher than 75%) are generally preferred for a generation and production of antibodies or fragments thereof, and/or T cell receptors or fragments thereof, as they show sufficient avidity to the MHC molecules and prevent dissociation of the MHC complexes.

KPKAAKPKAA and KPKAAKPKTA fall in the same range of peptide exchange yield: 20 to 50% for the first, 20 to 50% for the second.

First: RPSNKAPLL
Second: LPARFYQAL
The peptide exchange yield of the first is lower: 50 to 75% for the first, over 75% for the second.

Compared with MPDPHLYHQM, NPRYPNYMF is higher in peptide exchange yield: 20 to 50% for the first, 50 to 75% for the second.

First: KAFKWFSAL
Second: FPAPILRAV
The peptide exchange yield of the first is lower: 20 to 50% for the first, 50 to 75% for the second.

KPLFKVSTF and SPSLPSRTL fall in the same range of peptide exchange yield: 20 to 50% for the first, 20 to 50% for the second.

KPKAAKPKA and IPANTEKASF fall in the same range of peptide exchange yield: 20 to 50% for the first, 20 to 50% for the second.

First: YPIALTRAEM
Second: APINKAGSFL
The peptide exchange yield of the first is lower: 50 to 75% for the first, over 75% for the second.

First: RPRGLALVL
Second: APSKTSLIM
The peptide exchange yield of the first is higher: 50 to 75% for the first, 20 to 50% for the second.

MPLSTIREV and SPKESENAL fall in the same range of peptide exchange yield: 20 to 50% for the first, 20 to 50% for the second.

Compared with SPKLQIAAM, SPRITFPSL is higher in peptide exchange yield: 50 to 75% for the first, over 75% for the second.

APFGFLGMQSL and APRPAGSYL fall in the same range of peptide exchange yield: 50 to 75% for the first, 50 to 75% for the second.

SPSLPNITL and SESPWLHAPSL fall in the same range of peptide exchange yield: 50 to 75% for the first, 50 to 75% for the second.

IPVSHPVL and IPASHPVL fall in the same range of peptide exchange yield: 20 to 50% for the first, 20 to 50% for the second.

SPWLHAPSL and KAKKPAGAA fall in the same range of peptide exchange yield: 20 to 50% for the first, 20 to 50% for the second.

RPMTPTQIGPSL and SPVPSHWMVA fall in the same range of peptide exchange yield: 50 to 75% for the first, 50 to 75% for the second.

First: NPLTKLLAI
Second: YLNRHLHTW
The peptide exchange yield of the first is higher: 50 to 75% for the first, 20 to 50% for the second.

LPFGKIPIL and KPKAAKPKKAAA fall in the same range of peptide exchange yield: 20 to 50% for the first, 20 to 50% for the second.

First: KPKKAPKSPA
Second: LPLSMEAKI
The peptide exchange yield of the first is higher: 50 to 75% for the first, 20 to 50% for the second.

SPRSWIQVQI and RPNGNSLFTSA fall in the same range of peptide exchange yield: 50 to 75% for the first, 50 to 75% for the second.

First: YPYQERVFL
Second: IPVSRPIL
The peptide exchange yield of the first is lower: 20 to 50% for the first, 50 to 75% for the second.

KARKSAGAA and SPRVYWLGL fall in the same range of peptide exchange yield: 50 to 75% for the first, 50 to 75% for the second.

Compared with SPRAINNLVL, KPMKSVLVV is lower in peptide exchange yield: over 75% for the first, 50 to 75% for the second.

Compared with FPETVNNLL, SPLGSLARSSL is higher in peptide exchange yield: 20 to 50% for the first, over 75% for the second.

Target: T2, HLA-B*44:02 (human)
T2 construct: Peptide-receptive MHC class I monomer made by UV cleavage of a UV-sensitive ligand
Assay: UV ligand exchange ELISA; exchange yield grade
Source text: as §1, §2

Compared with AEIEIVKEEF, QEVDASIFKAW is higher in peptide exchange yield: 20 to 50% for the first, 50 to 75% for the second.

EELFRDGVNW and KELEDLNKW fall in the same range of peptide exchange yield: 50 to 75% for the first, 50 to 75% for the second.

REAGFQVKAY and AEIGEGAYGKVF fall in the same range of peptide exchange yield: 50 to 75% for the first, 50 to 75% for the second.

KEFELRSSW and KEKFPINGW fall in the same range of peptide exchange yield: 50 to 75% for the first, 50 to 75% for the second.

First: EEEGNLLRSW
Second: AESEDLAVHLY
The peptide exchange yield of the first is higher: 50 to 75% for the first, 20 to 50% for the second.

First: TENPLTKLL
Second: AESEDLAVHL
The peptide exchange yield of the first is higher: over 75% for the first, 20 to 50% for the second.

First: SEDHSGSYW
Second: EENTLVQNY
The peptide exchange yield of the first is higher: 50 to 75% for the first, 20 to 50% for the second.

QENQAETHAW and EEGNLLRSW fall in the same range of peptide exchange yield: 50 to 75% for the first, 50 to 75% for the second.

First: GEAVTDHPDRLW
Second: NEDKGTKAW
The peptide exchange yield of the first is higher: 50 to 75% for the first, 20 to 50% for the second.

Compared with NEIEHIPVW, VDASIFKAW is lower in peptide exchange yield: 50 to 75% for the first, 20 to 50% for the second.
